Laboratory results from patent publication US20210214414A1 (Pfizer, published 2021).

Experiments:
[1] = biological target: T1, Cynomolgus monkey SLIT3-N (cynomolgus monkey, UniProt A0A2K5UAP4 33-1125); experiment: HTRF competition: d2-labelled cynomolgus monkey SLIT3-N binding to human ROBO2 on HEK293 cells; geometric mean, n=3
T1 construct: domain: SLIT3-N; d2-labelled in the HTRF assay
T1 sequence: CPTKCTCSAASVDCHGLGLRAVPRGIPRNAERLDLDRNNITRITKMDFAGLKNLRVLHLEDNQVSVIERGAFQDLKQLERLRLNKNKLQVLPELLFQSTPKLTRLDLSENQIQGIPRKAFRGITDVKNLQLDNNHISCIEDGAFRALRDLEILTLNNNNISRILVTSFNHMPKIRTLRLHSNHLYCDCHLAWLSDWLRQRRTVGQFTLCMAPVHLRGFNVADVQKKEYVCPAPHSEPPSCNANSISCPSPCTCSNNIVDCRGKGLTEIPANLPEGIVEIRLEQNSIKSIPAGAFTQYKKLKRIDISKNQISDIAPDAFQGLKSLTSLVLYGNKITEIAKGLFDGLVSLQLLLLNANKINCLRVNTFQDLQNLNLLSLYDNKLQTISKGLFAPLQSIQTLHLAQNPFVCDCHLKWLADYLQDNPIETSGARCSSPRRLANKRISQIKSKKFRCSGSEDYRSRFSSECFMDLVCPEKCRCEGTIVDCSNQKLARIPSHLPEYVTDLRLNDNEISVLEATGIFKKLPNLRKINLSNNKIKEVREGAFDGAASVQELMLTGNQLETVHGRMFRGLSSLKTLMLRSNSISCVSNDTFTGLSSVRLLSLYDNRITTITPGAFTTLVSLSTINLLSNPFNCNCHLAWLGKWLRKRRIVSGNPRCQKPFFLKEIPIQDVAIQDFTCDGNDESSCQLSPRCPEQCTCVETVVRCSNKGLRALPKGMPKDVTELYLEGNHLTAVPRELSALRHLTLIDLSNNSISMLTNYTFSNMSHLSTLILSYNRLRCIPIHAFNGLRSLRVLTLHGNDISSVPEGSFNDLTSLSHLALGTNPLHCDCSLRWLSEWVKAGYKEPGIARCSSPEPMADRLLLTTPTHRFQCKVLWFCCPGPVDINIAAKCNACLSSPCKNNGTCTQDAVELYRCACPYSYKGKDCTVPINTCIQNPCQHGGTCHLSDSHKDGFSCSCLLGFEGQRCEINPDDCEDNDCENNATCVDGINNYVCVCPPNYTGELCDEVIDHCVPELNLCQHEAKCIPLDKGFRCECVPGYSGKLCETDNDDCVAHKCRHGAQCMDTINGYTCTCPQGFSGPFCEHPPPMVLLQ
Experimental: (§1) After incubation, fluorescence at 665 nm and 620 nm was measured on an Envision multilabel plate reader. The HTRF Ratio was calculated as follows: fluorescence at 665 nm/fluorescence at 620 nm×10,000. […] The IC₅₀ for each SLITx-N was determined using an 11-point, 4-fold dilution series with a top concentration of 4000 nM.

[2] = biological target: T2, Human SLIT2-N (human, UniProt O94813 31-1121, limits assumed); experiment: HTRF competition: d2-labelled human SLIT2-N binding to human ROBO2 on HEK293 cells (competitor: cell surface ROBO2)
T2 construct: domain: SLIT2-N (N terminal fragment); Soluble analyte in SPR, d2-labelled in HTRF, overexpressed on HEK293 cells in flow cytometry; also called human SLIT2-N (N terminal fragment)
T2 sequence (looked up): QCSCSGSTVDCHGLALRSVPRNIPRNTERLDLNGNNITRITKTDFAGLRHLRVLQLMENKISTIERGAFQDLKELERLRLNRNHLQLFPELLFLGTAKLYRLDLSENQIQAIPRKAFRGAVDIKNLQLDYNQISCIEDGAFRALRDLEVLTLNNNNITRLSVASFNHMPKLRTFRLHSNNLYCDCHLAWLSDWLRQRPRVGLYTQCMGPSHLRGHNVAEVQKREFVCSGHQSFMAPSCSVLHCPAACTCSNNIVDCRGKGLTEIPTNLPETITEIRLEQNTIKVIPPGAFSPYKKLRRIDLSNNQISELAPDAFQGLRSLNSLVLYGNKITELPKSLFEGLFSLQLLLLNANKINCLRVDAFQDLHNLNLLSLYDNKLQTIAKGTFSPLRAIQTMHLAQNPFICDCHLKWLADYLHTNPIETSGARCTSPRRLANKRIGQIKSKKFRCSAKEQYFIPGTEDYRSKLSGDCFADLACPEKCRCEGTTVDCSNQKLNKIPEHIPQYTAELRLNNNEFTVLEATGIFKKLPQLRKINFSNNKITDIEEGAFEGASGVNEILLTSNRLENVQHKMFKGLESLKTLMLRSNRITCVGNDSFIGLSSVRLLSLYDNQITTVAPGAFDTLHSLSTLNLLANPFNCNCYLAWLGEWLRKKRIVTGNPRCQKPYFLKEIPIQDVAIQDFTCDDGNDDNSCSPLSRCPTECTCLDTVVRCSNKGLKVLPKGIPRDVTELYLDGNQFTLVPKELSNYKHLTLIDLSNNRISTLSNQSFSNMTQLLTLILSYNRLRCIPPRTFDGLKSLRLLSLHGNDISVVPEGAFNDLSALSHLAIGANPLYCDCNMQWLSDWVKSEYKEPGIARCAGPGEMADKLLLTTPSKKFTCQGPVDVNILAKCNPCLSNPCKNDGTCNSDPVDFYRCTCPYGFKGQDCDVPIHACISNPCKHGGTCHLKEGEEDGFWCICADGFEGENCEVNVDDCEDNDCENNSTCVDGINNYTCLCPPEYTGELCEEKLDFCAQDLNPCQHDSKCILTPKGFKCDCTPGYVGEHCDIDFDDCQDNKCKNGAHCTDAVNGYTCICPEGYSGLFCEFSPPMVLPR
Experimental: as §1

[3] = biological target: T2, Human SLIT2-N; experiment: SPR, ROBO2-Fc 2.2 captured by anti-human Fc on a C1 chip, human SLIT2-N as analyte, 1:1 model
Experimental: HBS-EP was used as a diluent. […] An 8 point 2-fold dilution series was performed on the SLIT2 ligands, ranging from 2 nM to 15.6 pM using HBS-EPB as the diluent. […] Association of the indicated SLIT2 ligand was followed for 120 s and dissociation monitored for 180 s. The apparent binding affinity was determined using a simple 1:1 interaction model of the kinetic rate constants.

[4] = biological target: T2, Human SLIT2-N; experiment: flow cytometry, AF647-labelled ROBO2-Fc 2.2 on HEK293 cells overexpressing human SLIT2-N (FIG. 5)
Experimental: After incubation, 150 μL of FACS buffer was added per well to wash the cells. After washing, cells were resuspended in buffer for data acquisition on a Fortessa Flow Cytometer.

IC50 [1]: 3.6 nM | IC50 [2]: 7 nM | Kd [3]: 0.279 nM | EC50 [4]: 9 nM
B1: ROBO2-Fc 2.2 (Fc fusion)
chain: SRLRQEDFPPRIVEHPSDVIVSKGEPTTLNCKAEGRPTPTIEWYKDGERVETDKDDPRSHRMLLPSGSLFFLRIVHGRRSKPDEGSYVCVARNYLGEAVSRNASLEVALLRDDFRQNPTDVVVAAGEPAILECQPPRGHPEPTIYWKKDKVRIDDKEERISIRGGKLMISNTRKSDAGMYTCVGTNMVGERDSDPAELTVFERGGSGGSEPKSSDKTHTCPPCPAPEAAGAPSVFLFPPKPKDTLMISRTPEVTCVVVDVSHEDPEVKFNWYVDGVEVHNAKTKPREEQYNSTYRVVSVLTVLHQDWLNGKEYKCKVSNKALPAPIEKTISKAKGQPREPQVYTLPPSREEMTKNQVSLTCLVKGFYPSDIAVEWESNGQPENNYKTTPPVLDSDGSFFLYSKLTVDKSRWQQGNVFSCSVMHEALHNHYTQKSLSLSPG
notes: Labelled with Alexa Fluor 647 in the flow cytometry assay; also called ROBO-Fc 2.2; ROBO2-Fc 2.2-AF647
